B1: TPR t1 (parent)
chain: GACCAAUCUGCCCUCAGAGCUCGAGAACAUCUUCGGAUGCAGAGGAGGCAGGCUUCGGUGGCGCGAUAGCGCCAACGUCCUCAACCUCCAAUGCAUCCCACCACAUGAUGAUGCCUGAAGAGCCUUGGUUUUUUG

Variants of: B1
Test: polymerase ribozyme fitness, log enrichment relative to wild type (log ratio); higher = more active; in vitro selection for triplet polymerase activity
Procedure, shortened: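 One round of in vitro selection, in triplicate, was applied to PCR-built, transcribed mutant libraries of each subunit of a heterodimeric triplet polymerase ribozyme. The steps were annealing with a biotinylated primer, partner subunit and triplets, incubation frozen at −7 °C, gel excision of extended constructs, streptavidin-bead capture and RT-PCR. Fitness is the logarithm, base 2, of genotype enrichment over wild-type enrichment from inverse-variance-weighted replicate averages of Illumina-sequenced inputs and outputs, keeping genotypes with ≥10 input reads and ≥1 read per output.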

Row | Variant | polymerase ribozyme fitness (log ratio)
1 | GACCAAUCUGCCCUCAGAGCUCGAGAACAUCUUCGGAUGCAGAGGAGGCAGGCUUCGGUUGCGCGAUAGCGCCAACGUCCUCAACCUCCAAUGCAUCCCACCACAUGAUGAUGUCUGAAGAGUCUUGGUUUUUUG [G60U C114U C123U] | -3.67
2 | GACCAAUCUGCCCUCAGAGCUCGAGAACAUCUUCGGAUGCAGAGGAGGCAGGCUUCGGUUGCGCGAUAGCGCCAACGUCCUCAACCUCAAAUGCAUCCCACCACAUGAUGCUGACUGAAGAGCCUUGGUUUUUUG [G60U C89A A111C C114A] | -4.37
3 | GACCAAUCUGCCCUCAGAGCUCGAGAACAUCUUCGGAUGCAGAGGAGGCAGGCUUCGGUUGCGCGAUAGCGCCAACGUCCUCAACCUCCAAUGUAUCCCACCACAUGAUCAUGCCUGAAGAGCCUUGGUUUUUUG [G60U C94U G110C] | -4.16
4 | GACCAAUCUGCCCUCAGAGCUCGAGAACAUCUUCGGAUGCAGAGGAGGCAGGCUUCGGUUGCGCGAUAGCGCCAACGUCCUCAACCUCUAAUGCAUCCCACCACAAGAUGAUGCCUGAAGAGCCUUGGUUUUUUG [G60U C89U U106A] | -0.38
5 | GACCAAUCUGCCCUCAGAGCUCGAGAACAUCUUCGGAUGCAGAGGAGGCAGGCUUCGGUUGCGCGAUAGCGCCAACGUCCUCAACCUCCAAUGCAUCCCACUACAUGGUGAUGCCUGAAGAGCCUUGGUUUUUUG [G60U C102U A108G] | -3.29
6 | GACCAAUCUGCCCUCAGAGCUCGAGAACAUCUUCGGAUGCAGAGGAGGCAGGCUUCGGUUGCGCGAUAGCGCCAACGUCUUCAACCUCCAAUGCAUCCCACCACAGGAUGAUGCCUGAAGAGCCUUGGGUUUUUG [G60U C80U U106G U129G] | -6.15
7 | GACCAAUCUGCCCUCAGAGCUCGAGAACAUCUUCGGAUGCAGAGGAGGCAGGCUUCGGUUGCGCGAUAGCGCCAACGUACUCAACCUCCAAUGCAUCCCACCACAUGAUGAUGCCUGAAGAGCCUUGGUUUUUUG [G60U C79A] | -0.593
8 | GACCAAUCUGCCCUCAGAGCUCGAGAACAUCUUCGGAUGCAGAGGAGGCAGGCUUCGGUUGCGCGAUAGCGCCAACGUCCUCAACCUCGAAUGCAUCCCAUCACAUGAUGAAGCUUGAAGAGCCUUGGUUUUUUG [G60U C89G C101U U112A C115U] | -4.63
9 | GACCAAUCUGCCCUCAGAGCUCGAGAACAUCUUCGGAUGCAGAGGAGGCAGGCUUCGGUUGCGCGAUAGUGCCAACGUCCUCAACCUCCAAUGUAUCCCACCACAUGAUGAUGCCUGAAGAGCCUUGGUUUUUUG [G60U C70U C94U] | -2.63
10 | GACCAAUCUGCCCUCAGAGCUCGAGAACAUCUUCGGAUGCAGAGGAGGCAGGCUUCGGUUGCGCGAUAGCGCCAACGUCCUCAACCUCCAAUGCAUCGCACCACAUGAUGAUGCCUGAAGAGCCUUGGUUUUUUG [G60U C98G] | -5.35
11 | GACCAAUCUGCCCUCAGAGCUCGAGAACAUCUUCGGAUGCAGAGGAGGCAGGCUUCGGUUGCGCGAUAGCGCCAACGUCCUCAACCUCCAAUGCAUCCCAUCACAUGAUGAUGCCUGAAAAGCCUUGGUUUUUUG [G60U C101U G120A] | 0.583
12 | GACCAAUCUGCCCUCAGAGCUCGAGAACAUCUUCGGAUGCAGAGGAGGCAGGCUUCGGUUGCGCGAUAGCGCCAACGUCCUCAACCUCCAAUGCAUACCACCACAUGAUGAUGCCUGAAGAGUCUUGGUUUUUUG [G60U C97A C123U] | -2.62
13 | GACCAAUCUGCCCUCAGAGCUCGAGAACAUCUUCGGAUGCAGAGGAGGCAGGCUUCGGUUGCGCGAUAGCGCCAACGUCCUCAACAUCCAAUGCAUCCCACCACAUGAUGAUGCCUGAAGAGCCUUGGUUUUUUG [G60U C86A] | -0.471
14 | GACCAAUCUGCCCUCAGAGCUCGAGAACAUCUUCGGAUGCAGAGGAGGCAGGCUUCGGUUGCGCGAUAGCGCCAACGUCCUCAACCUCCAAUGCAUCCCACCACAUGAUGAUGCAUGAAGAGCCUUGGUUUUUUG [G60U C115A] | 0.226
15 | GACCAAUCUGCCCUCAGAGCUCGAGAACAUCUUCGGAUGCAGAGGAGGCAGGCUUCGGUUGCGCGAUAGCGUCAACGUCCUCAACCUCCAAUGCAUCCCACCACAUGAUGUUGCCUGAAGAGCCUUGGUUUUUUG [G60U C72U A111U] | -2.86
16 | GACCAAUCUGCCCUCAGAGCUCGAGAACAUCUUCGGAUGCAGAGGAGGCAGGCUUCGGUUGCGCGAUAGAGCCAACGUCCUCAACCUCCAAUGCAUCCCACCACAUGAUGAUGCCUGAAGAGCCUUGGUUUUUUG [G60U C70A] | -3.78
17 | GACCAAUCUGCCCUCAGAGCUCGAGAACAUCUUCGGAUGCAGAGGAGGCAGGCUUCGGUUGCGCGAUAGCGCCAACGUCCUCAACCUCCAAUGCAUCCCACCACAUGAUGAUGACUGAAGAGCCUUCGUUUUUUG [G60U C114A G127C] | -2.37
18 | GACCAAUCUGCCCUCAGAGCUCGAGAACAUCUUCGGAUGCAGAGGAGGCAGGCUUCGGUUGCGCGAUAGAGCCAACGUCCUCAACCUCCAAUGCAUCCCACCACAUGAUGAUGUCUGAAGAGCCUUGGUUUUUUG [G60U C70A C114U] | -7.08
19 | GACCAAUCUGCCCUCAGAGCUCGAGAACAUCUUCGGAUGCAGAGGAGGCAGGCUUCGGUUGCGCGAUAGCGCCAACGUCAUCAACCUCCAAUGCAUCCCACCACAUGAUGAUGCCUGAAGAGCCUUGGUUUUUUG [G60U C80A] | -3.33
20 | GACCAAUCUGCCCUCAGAGCUCGAGAACAUCUUCGGAUGCAGAGGAGGCAGGCUUCGGUUGCGCGAUAGCGCUAACGUCCUCAACCUCCAAUGCAUCCCACCACAAGAUGAUGCCUGAAGAGCCUUGGUUUUUUG [G60U C73U U106A] | -0.452
21 | GACCAAUCUGCCCUCAGAGCUCGAGAACAUCUUCGGAUGCAGAGGAGGCAGGCUUCGGUUGCGCGAUAGCGCCAACGUCCUCAAACUCCAAUGCAUCCCAUCACAUGAUGAUGCCUGAAGAGCCUUGGUUUUUUG [G60U C85A C101U] | -0.366

Reference: the RNAGym collection of RNA variant scans (doi:10.1073/pnas.2313332121)
